The values below come from patent US20240074473A1, “METHOD FOR INDUCING HYPERTROPHIC MUSCLE FIBERS FOR INDUSTRIAL MEAT PRODUCTION” (Yeda Research and Development Co. Ltd., priority 2021, published 2024).

Series [1] can be described thus: Risk categorization of cell culture media ingredients. The text has this: Category 1: These cell culture media components are food ingredients/additives that are GRAS or permitted by federal regulation without limitation on use. Exemplary compounds in this category include innocuous ingredients such as sugars, pH buffers, water soluble vitamins, and common antioxidants such as tocopherols.
Category 2: These cell culture media components are common dietary nutrients and are anticipated to have GRAS status for food use or be permitted by regulation for addition to food. Examples of such compounds include most of the inorganic salts and macronutrients that are present within the cell culture media. […] Majority of nutrients present within the poultry cell-based meat may be readily measured using common validated methods for food composition testing. […]
For example, situations where the compound is not detectable in finished product or is present at equivalent levels in comparator foods, compounds that are thermo-labile and will be digested during cooking, and/or compounds that are expected to be digested to innocuous compounds following ingestion. […] For Category 3 substances a final consideration in the safety assessment process may involve hazard characterization of the potential for a substance to produce toxic biological effects outside of the endpoints measured in a sub-chronic rat toxicity study. […]

Series [2] can be described thus: Maximum estimated dietary exposure to media ingredients per 100 g serving. The conditions noted are these: assumption of complete transfer of media components to the finished product on a wt/wt basis.

B1: Bovine Transferrin: iron carrier of cell culture media (protein, UniProt Q29443 20-704, looked up)
Serotransferrin: DPERTVRWCTISTHEANKCASFRENVLRILESGPFVSCVKKTSHMDCIKAISNNEADAVTLDGGLVYEAGLKPNNLKPVVAEFHGTKDNPQTHYYAVAVVKKDTDFKLNELRGKKSCHTGLGRSAGWNIPMAKLYKELPDPQESIQRAAANFFSASCVPCADQSSFPKLCQLCAGKGTDKCACSNHEPYFGYSGAFKCLMEGAGDVAFVKHSTVFDNLPNPEDRKNYELLCGDNTRKSVDDYQECYLAMVPSHAVVARTVGGKEDVIWELLNHAQEHFGKDKPDNFQLFQSPHGKDLLFKDSADGFLKIPSKMDFELYLGYEYVTALQNLRESKPPDSSKDECMVKWCAIGHQERTKCDRWSGFSGGAIECETAENTEECIAKIMKGEADAMSLDGGYLYIAGKCGLVPVLAENYKTEGESCKNTPEKGYLAVAVVKTSDANINWNNLKDKKSCHTAVDRTAGWNIPMGLLYSKINNCKFDEFFSAGCAPGSPRNSSLCALCIGSEKGTGKECVPNSNERYYGYTGAFRCLVEKGDVAFVKDQTVIQNTDGNNNEAWAKNLKKENFEVLCKDGTRKPVTDAENCHLARGPNHAVVSRKDKATCVEKILNKQQDDFGKSVTDCTSNFCLFQSNSKDLLFRDDTKCLASIAKKTYDSYLGDDYVRAMTNLRQCSTSKLLEACTFHKP
In the case of B1, the “Risk Assessment Category” value in series [1] amounted to 3. In addition, the “Maximum Estimated Exposure per 100 g serving” value in series [2] was 150 mg.
